Results taken from a protein production outcome set (Wang et al. 2014).

Assay: label from the status in PepcDB records

For “MKIVSKSSPLPLHYQLKMILQEMIENEELLPGDTIPTERELCEIQKISRMTVNKAILSLVSEGILYREQGKGTFVAKKKEKQQLTKLKSFTEEMREKGLNISTKILSFEIKTATKHISTLLELPHKKMKVIEIIRLRLTDNDPSAIETVVLPLYLFSDMTKEVIDGKSLYNTFREKYGYEPTKAKQTIEPIMLTDYEAKFLNQVGNSLALLFRRLTYRKDGVPIEYTKSIYRSEKYKYEVILT”, the protein production was “failed”.

For “SDDREMDDGRWKASALRVPLQVSSAVIKQEVVTRLAPDPVPLTEGAIGIFLSGTEPESGQEDSGYKVIDNRKYVYSEGHWGPPTANDTIYLVGNDADVCAYYPYKDSYTDKTVIPLQSQDYVETEDIYYALNTMINGFTPAITFDMVHAYSLVELKISRENYFMPCEISKITLKNSNLIKKGTINIAVDGSIHSSETGNYDLTTVTDASPHTLSVGESYVCRVLMIPVPLKIERTDAEGGEFGLSVSLVIDGQQMLVEIPYSELGEFRQGEKYVIGLKIKGTEIVPTVKALEWEDEEVNGGNKYPVE”, the protein production was “not failed”.

For “MGIRVKRRQHQHLLESLVHSTAKQQGDFTKTAELATELLCQNLAVSLVSIWIFSADQGTQSLVAQFGSMALQDTYRPSLLHTVPRYLNELKNYRHIDAGNTLIDPRLTELVDSYFIPRQILSSLDVGIRINGHLEGVLCIERAQVTHHWHDSEIHLACQMADQLALTLATKHAYLEHHHHHH”, the protein production was “failed”.

In the case of “VGGFTWDLSANLSSVANKIISLPYNGIENNRVGGYEVAVGKGTNATKWIAGRQEGGKLGEMVAYKQNHIFKSWDDVKEHANMMIDEVANLYGPGLASEYAGKEGWKPIEPGDVCWEDINGDNKINGLDREVVGNIFPKVTGGFSSTLSWKGISLYARFDYALGHTLYNDLAARTLGQYQGAFNIITEVKDMWSEDNPNSDLPAFYYADQLAKKNITRSNNASASRHNNSSRLYEKADYLALRELTLSWDLPKAWTSKAFIQNASVYVTGQNLFYVTGYTGTSPEPVLTNSDNNENLYGVDQGRYPTPRTVLFGLSVTF”, the protein production is reported as “failed”.

In the case of “MYNKTILESQHTLIPMPSTSTNAQPTLAKQLFTMTWPMLFGVLSLMSFQLVDSAFIGQLGVLPLAAQGFTLPLQMVIIGIQVGLGIATTAVISKALGANDARYAKQLGGLVLMIGSIGVAVFGLLIWLLRYPILSLLSAPETVMPIIDSYWPWWLLSSWAGAVLYFYYSICRANGNTMLPGTMMMVTSGVNLVLDPLFIFTLDLGINGAALATLVAFGFGILVVAPRVKRNHWATTQWQDLNVMKSVTSIGNIMGPAMVSQLLPPLSSMLATKLLASFGTAAVAAWALGSRYEFFAIVSVLALTMSMPPMVGRLLGAKNYRDIQSLVGIAVKFILGFQLLIAAITFLLANPLALLMTSDTQVEQVLHMHLMIVPISLGSLGVCMLMVSICNALGKSYTALTISALRLFVFFLPCLWLGAQLDGIRGLLFGACVGNIMAGISAYLTYRKTIHKLAIKQATA”, the protein production is reported as “failed”.

In the case of “MTSLSQFEPLFLEFMQQEMQVDAAHDIEHVKRVVKTAKQLCDEENADIAIVLPAAYLHDCFTYPKDHPNRKQSSAIAAKKAIAYLESIQYPQHYHDAIAHAIEAHSFSANIRPNTLEAQIVQDADRLDALGAIGVTRCIQVSTHFNAQLYNDNDMFAKERELNDKQFTVDHFQTKLFKIADTMNTESAKLEANKRKAFMQTYLKQLHDEVTALEHHHHHH”, the protein production is reported as “not failed”.

With “MSLASFPHRNLTWNDINFVHTTDTHGWYSGHINQPLYHANWGDFISFTTHMRRIAHSRNQDLLLIDSGDRHDGNGLSDITSPNGLKSTPIFIKQDYDLLTIGNHELYLWENSKQEYETVVNHFQDKYVCSNVDIRLDNGLFVPLGLKYKYFTTPIRGIRVMAFGFLFDFKRFNSGTRVTPMAETIHEPWFQEALKHEVDLIIIVGHTPISHNWGEFYQVHQYLRQFFPDTIIQYFGGHSHIRDFTVFDSLSTGLQSGRYCETVGWTSVNLDKADLNLPVRQRFSRSYIDFNTDSFKYHTNLDKEFDTAKGKLVSKLIRETRKELKLDTLIGYVKTNYYVDYVPIDHPKSIFNLLALKILKTLPKSKHEERITIINTGSIRYDLYKGPYTIDSKFIVSPFENIWVNITVPKSVATKVAAKLNDADYISASRLKPPHQYDLQVQDLSTSPHQAHFEMQEKLPKGYVTHDDFGADGDDTLHRAVVNFPVPNVIQSVEINDEVDSPVNLVFYSFITPNIIWALKELNFSTEQVPTPYSDIYLGTLLNEFVANNEGHHHHHH” the protein production was “not failed”.

For “MPFGYGLSYGTDFSQEIVSTEQNEDSVTLKVHAANNGTKAGKDVVQVYYNPPYTDFDAKNSIEKSTVNLIAFEKTDDIQPGAAQDITVTVTKEDMASYSYAHENSDGTKGAYLLEQGDYALSINKTAHEEYQSVTVNVPQTIWYDNDNPRQSDKDGQAILDDQGDPTNEPANGDTFKAASNLFQDMTDHMSKTSQLTRANGALSNTATFPTKEEMADISAAFNAKTDDEGRLILQQMDLDTDTTLGNTAGSKVYTTEKPTSNADNGLTLSDLRGVDFNDTKWDQLLDQLEWPSRMPE”, the protein production was “failed”.

In the case of “RRLNDELLGKVVSVVSATERTEWYPALVISPSCNDDITVKKDQCLVRSFIDSKFYSIARKDIKEVDILNLPESELSTKPGLQKASIFLKTRVVPDNWKM”, the protein production is reported as “failed”.

With “MKKWWMLTICIVFIVAAVVPVRAAAASHPLFANVIVVFQQQVDEQAVKTLHGNVTKRFEVIPAVAATLPVTAVELLRRWPGVDYVQQDTTVAIDGQITDWGVEKVKAPVMHTHGVTGKGVKIAILDTGVDLKHPDLRVVGGACVLSYCPNSYQDDNGHGTHVAGIIAAKDNDIGTVGVAPNASIYAVKVLDRYGEGNVSDILSGIEWAMKHRVDIINLSLAAPEDAPALKAAIRKAYESGILVVAAAGNNGYANGTGDTVEYPAKYDSAIAVSAVNKENVRLPYSATGPAIEVAAPGEGVYSTVPVALDGDGRRDGYTHMSGTSMAAPFVTGVLALYKQQYPERTNIELRQMLRDRALDLGTPGRDPWYGYGLVRAVSNQPPELKVKLLSVKKGEVAFSVTLSGSAVKGYRVYRNGKQIETLQTAGTYTDYVVKGTYQYEFASIRNDGAESALTAPITVNVPDPYYKDVSASAWYMPEIAYLSSRGIVSGYNNGTIQPYNTITRAEVAVMLGRALHLDATKRATVFRDVASSDFASGYIQSAYERGLINGYPDGTFRPQQPITRAETAIILSRAYPLPGGSSMMFKDVTARVTGHEAIAKLAAARIAEGYPDGTFRPYQFVKRLEFFVFTARADNERFR” the protein production was “failed”.

In the case of “MMHSTVQHGGNKSGKSNVWANTNLAKTVAAVDEFKFGFPSGGLTTVSNKWWGRAEKGGREDGGGENTENGHVAACDETQNSLVAIRKRIAEEGREAVELGLHQGFGSKRPGKRDQALLFQIFNSAMPKDWVTPDSS”, the protein production is reported as “failed”.

For “MEPMQVVKQRRDAALNALVSGVPFIRFLNITFDRRGDELTGVLNFDDKLIGNPFLPAIHGGVTAAFLEVTAVITLSWAHLFERIESGDLAPEDILTDENMRFPKTIDFTIDYLRSGLPRDAYARAYISRAGRRYASVRVEAWQDHHDKLYAQGTGHFLMPLEHHHHHH”, the protein production was “failed”.

In the case of “STQYMELNQRDEKSPFRNANLRKAISYSIDRKALVESILGDGSIEPNGLVPADMAKDPSGGKDFAKEAGSQIEYDTKKAKEYWEKAKKELGISTLTMDILSSDADSSKKTVEFVQGSIQDALDGVKVTVSPVPFSVRLDRSNKGDFDAVIGGWSADYADPSSFLDLFASDNSYNRGRYNNAEFDKFVKAASSADATDPEKRWDDMLNAEKTIMGDMGVVPLFQKS”, the protein production is reported as “not failed”.

In the case of “MREVNEGASAYPGQRATGESIERGGGGLSVSDLLAKVMTAAAPQPTGSGTESGPGAGPTAGPSLDVDGLAVAVAATAGRYLPGGHLSPDSDFFDAGGTSVHAVELVAELERELGMEIALDDVFADARPRTLARRWLSAGGAPAAHSATPATPEPTAAGVAATGVTAIGATAAGAAVAGATAAGVAATPGLLPLSAAGTRPAPAPSGLPVPSPRTPPAVAATPPPGSGDAPYSTARREDLDQILADLALADRLPWTGAPEPLPPRRILLTGATGFLGSHMLLDLLRHSDAHVYCLVRAADEEAATARLGQALKGYELPWSSEVRRRVTVLPGDIRHPRLGLSDDLWNTLAHELDSVVGVAAAVDFLRGYPSLRQSNVLGALTLAELAATGRPKPLHHISSIAVFNEVGITAMGEDDPLARVDRLVAGYDQTKWTAEVALRRARDHGLLVTAMRPGGIGGHTRTGAYNPQDLSSGLISAFGRFRTVPAFRYLNAAPVDWVSRVAVGVICEPDAWGYDYNLTGVPNTLDDVVQDMALGGMHVRVQDWDEWRTDALARLEADPVPELAFLTRVLRSPTALKLCEATLKGPAAHDDRTAALVEALGLGPAARYDAQAQLRTFERLARDGLARLPHKDDQPYLWFSERTEGGVGPVGAPADTPCSMALTLSIASMYQLVKERRVDVSGELVCAAVHPEPLTVERGDVWIRPEEGIPEQHGMRHQLLRYRLELRDTDGGHWWLEGHKYARARRDVWRQTRALTVEIGRAGEPARLTGEVVVPADSYVRDQIDGIKVDPRLTSQEKRAAKLTWLAWFGLEVGRGLLGPFARVAADLLDLRRNPTLTERNR”, the protein production is reported as “failed”.

With “MGLTEQKQKHMEQLSDKNGIISALAFDQRGALKRLMAKYQSEEPTVSQIEALKVLVAEELTPYASSMLLDPEYGLPATKVLDDNAGLLLAYEKTGYDTSSTKRLPDCLDIWSAKRIKEEGADAVKFLLYYDVDSSDEVNEEKEAYIERIGSECVAEDIPFFLEILSYDEKITDSSGIEYAKIKPRKVIEAMKVFSNPRFNIDVLKVEVPVNMDYVEGFAQGETAYNKATAAAYFREQDQATLLPYIFLSAGVPAQLFQETLVFAKEAGAKFNGVLCGRATWAGSVKEYVEKGEAGARQWLRTIGFQNIDELNKILQKTATSWKER” the protein production was “not failed”.

For “MQKRAYLLIAVSGSLWGTIGIFVRELYGLGFSTLQIVTMRVFSAAVIMLLYLLFTKPELLKIRFRDSLYFVGTGILSIVFFNLCYFITIRETSIAIAVTLLYTAPAFVAILSRIIFRESLDAKKLFSLGLTLTGCAFVTGYLPELGNSPSITLPWLLTGLGAGFGYALYSIFGKVALKKYDTVTITAYTFFFASLALLPLVSFETSGEAFSTGSFWTYLIGLGFFPTVLAYLLYTKGLEEVESSRAAIVATVEPVVATFAGFFFFREIVSGWQLAGILFVLAGVVLIQERK”, the protein production was “failed”.

With “MDSFMESLNRLKEAHEKEVLGLQNKLLELNSERCRDAQRVEELFAKNHQLREQQKALKENLRVLENRLRAGLCDRCMVTQELARKKQLELENAHLQSLQHLCILTNEMNGLREENKILKEEVKRLRSLGDKTAPQAWEGTSEPPSPLPLPSPRQASGPP” the protein production was “failed”.

For “MSPSHSINSNSDGNASCSTCSTCFDTTTSTTDEEYDALIKTKTWSLVPKPAGTNIINSIWLYKHKYNADGSLSRYKSRLVANGKSQEHGVDFYETFSPVVKPATIRAVLNFAVERDSSVHQLDVQNAFLHGKLEETVYMYEPPGFVDNKNPGYVCKLNKALYGFKQAPRAWNARFASYVKMMGFKQSKCDASLFVYKQGNDMAYLLLYVDDIMLTASSPSQEKYAKNIINIVEMQNWKPSLTSVDLACKLEESVGPKIQDLTLYRSLVGALQYLTITRPNISYAVQQGLSITKSPSTKLVADSDADWVGCPNTRRSTSGYCVFLRDTLISWSSKRQGSVSRSSAEAEYKAVANAVVATCEVRVIHIPASHQYADIFTKGLTTSLFNRFKSSLGVIQRPTKRLREGDLLFNRKDEIRTFEVVSRYGHGPKLLGRFSGGRIEEFINARTLSAANLRDAEVPTRVAAKLREFHGINIPGDRNVLIWDRMRNWLRQAKSLCTPEDLAEFGLDKIEDEIYLLEHELQDKCKQQEIGFCHNDLQYGNIMIDEDTNAITIIDYEYASYNPVAYDIANHFCEMAANYKVAGEEERRRFIHNYLSSSGEEPKEDDIKQLLKDAEKYTLASHLFWGLWGIISGYVNKIDFDYAEYSRQRFKQYWLRKPELLLFSQMYISNTK”, the protein production was “failed”.
